Results from patent publication US20200238197A1.

Experiments:
[1] = target: human IgG1; experiment: ELISA, IgG1 antibody coated on plate, detection with Strep-Tactin-HRP
[2] = target: Polyclonal human IgG Gammanorm; experiment: Binder coupled to Praesto Pure45 agarose beads. Mass of injected polyclonal hIgG (Gammanorm) at 10% breakthrough, 6 min residence time (Example 10).

Row | Substance | Kd [1] | dynamic binding capacity [2]
1 | Staphylococcus aureus Protein A domain B | 3.1 nM | –
2 | R PROTEIN A | – | 37.4 mg/mL
